Experimental data from paper doi:10.1101/2021.08.20.457142.

B1: MKK7 D-site peptide (second D-site) / JNK1 alpha1 (MAPK8 isoform 1) L198A, full length (parent complex)
chain 1: SQPQRPRPTLQLPLANEAFEQP
chain 2: MSRSKRDNNFYSVEIGDSTFTVLKRYQNLKPIGSGAQGIVCAAYDAILERNVAIKKLSRPFQNQTHAKRAYRELVLMKCVNHKNIIGLLNVFTPQKSLEEFQDVYIVMELMDANLCQVIQMELDHERMSYLLYQMLCGIKHLHSAGIIHRDLKPSNIVVKSDCTLKILDFGLARTAGTSFMMTPYVVTRYYRAPEVIAGMGYKENVDLWSVGCIMGEMVCHKILFPGRDYIDQWNKVIEQLGTPCPEFMKKLQPTVRTYVENRPKYAGYSFEKLFPDVLFPADSEHNKLKASQARDLLSKMLVIDASKRISVDEALQHPYINVWYDPSEAEAPPPKIPDKQLDEREHTIEEWKELIYKEVMDLEERTKNGVIRGQPSPLAQVQQ

Variants of: B1

**Q.** chain 1 Q11R was tested. Which screen value did it give?
**A.** 1.59 Z-score of the enrichment rate within one screen of 711 sequences

**Q.** With chain 1 Q11M as the variant, how does the screen value read?
**A.** 1.43 Z-score of the enrichment rate within one screen of 711 sequences

**Q.** With chain 1 Q11V as the variant, how does the screen value read?
**A.** 1.38 Z-score of the enrichment rate within one screen of 711 sequences

**Q.** With chain 1 Q11D as the variant, how does the screen value read?
**A.** 1.71 Z-score of the enrichment rate within one screen of 711 sequences

**Q.** chain 1 Q11K was tested. Which screen value did it give?
**A.** 1.58 Z-score of the enrichment rate within one screen of 711 sequences

**Q.** chain 1 Q11L was tested. Which screen value did it give?
**A.** 1.67 Z-score of the enrichment rate within one screen of 711 sequences

**Q.** chain 1 P6I was tested. Which screen value did it give?
**A.** 1.35 Z-score of the enrichment rate within one screen of 711 sequences

**Q.** chain 1 P6S was tested. Which screen value did it give?
**A.** 0.764 Z-score of the enrichment rate within one screen of 711 sequences

**Q.** With chain 1 P6R as the variant, how does the screen value read?
**A.** 1.25 Z-score of the enrichment rate within one screen of 711 sequences

**Q.** chain 1 P6D was tested. Which screen value did it give?
**A.** 0.975 Z-score of the enrichment rate within one screen of 711 sequences

**Q.** Which screen value does the source give for chain 1 P6W here?
**A.** 1.02 Z-score of the enrichment rate within one screen of 711 sequences

**Q.** With chain 1 P6E as the variant, how does the screen value read?
**A.** 1.2 Z-score of the enrichment rate within one screen of 711 sequences

**Q.** How did the screen value turn out when chain 1 P6G was run?
**A.** 0.655 Z-score of the enrichment rate within one screen of 711 sequences

**Q.** Which screen value does the source give for chain 1 R5G here?
**A.** 0.242 Z-score of the enrichment rate within one screen of 711 sequences

**Q.** Which screen value does the source give for chain 1 R5M here?
**A.** 0.716 Z-score of the enrichment rate within one screen of 711 sequences

**Q.** With chain 1 R5T as the variant, how does the screen value read?
**A.** 1.01 Z-score of the enrichment rate within one screen of 711 sequences

**Q.** With chain 1 R5H as the variant, how does the screen value read?
**A.** 0.688 Z-score of the enrichment rate within one screen of 711 sequences

**Q.** With chain 1 R5Q as the variant, how does the screen value read?
**A.** 1.01 Z-score of the enrichment rate within one screen of 711 sequences

**Q.** How did the screen value turn out when chain 1 R5N was run?
**A.** 0.604 Z-score of the enrichment rate within one screen of 711 sequences

**Q.** How did the screen value turn out when chain 1 R5F was run?
**A.** 1.12 Z-score of the enrichment rate within one screen of 711 sequences

**Q.** chain 1 R5K was tested. Which screen value did it give?
**A.** 1.36 Z-score of the enrichment rate within one screen of 711 sequences

**Q.** With chain 1 R5C as the variant, how does the screen value read?
**A.** 0.699 Z-score of the enrichment rate within one screen of 711 sequences

**Q.** Which screen value does the source give for chain 1 Q4A, chain 1 L14A here?
**A.** 0.562 Z-score of the enrichment rate within one screen of 711 sequences

**Q.** With chain 1 L10E as the variant, how does the screen value read?
**A.** -0.301 Z-score of the enrichment rate within one screen of 711 sequences

**Q.** With chain 1 L10K as the variant, how does the screen value read?
**A.** -0.134 Z-score of the enrichment rate within one screen of 711 sequences

**Q.** For chain 1 L10Y, which screen value is on record?
**A.** -0.115 Z-score of the enrichment rate within one screen of 711 sequences

**Q.** For chain 1 L10F, which screen value is on record?
**A.** 0.606 Z-score of the enrichment rate within one screen of 711 sequences

**Q.** With chain 1 L10I as the variant, how does the screen value read?
**A.** 0.256 Z-score of the enrichment rate within one screen of 711 sequences

**Q.** Which screen value does the source give for chain 1 L10Q here?
**A.** -0.301 Z-score of the enrichment rate within one screen of 711 sequences

**Q.** With chain 1 L10H as the variant, how does the screen value read?
**A.** -0.321 Z-score of the enrichment rate within one screen of 711 sequences

**Q.** With chain 1 L10M as the variant, how does the screen value read?
**A.** 1.08 Z-score of the enrichment rate within one screen of 711 sequences

**Q.** With chain 1 L10W as the variant, how does the screen value read?
**A.** -0.417 Z-score of the enrichment rate within one screen of 711 sequences

**Q.** For chain 1 L10D, which screen value is on record?
**A.** -0.874 Z-score of the enrichment rate within one screen of 711 sequences

**Q.** Which screen value does the source give for chain 1 Q4A, chain 1 P6A here?
**A.** 1.09 Z-score of the enrichment rate within one screen of 711 sequences

**Q.** Which screen value does the source give for chain 1 P8A, chain 1 N16A here?
**A.** 0.523 Z-score of the enrichment rate within one screen of 711 sequences

**Q.** With chain 1 T9A, chain 1 L14A as the variant, how does the screen value read?
**A.** 0.13 Z-score of the enrichment rate within one screen of 711 sequences

**Q.** chain 1 R5A, chain 1 N16A was tested. Which screen value did it give?
**A.** 0.479 Z-score of the enrichment rate within one screen of 711 sequences

**Q.** With chain 1 A15P as the variant, how does the screen value read?
**A.** 1.61 Z-score of the enrichment rate within one screen of 711 sequences

**Q.** With chain 1 A15G as the variant, how does the screen value read?
**A.** 1.63 Z-score of the enrichment rate within one screen of 711 sequences

**Q.** Which screen value does the source give for chain 1 A15L here?
**A.** 1.8 Z-score of the enrichment rate within one screen of 711 sequences

**Q.** With chain 1 A15H as the variant, how does the screen value read?
**A.** 1.57 Z-score of the enrichment rate within one screen of 711 sequences

**Q.** chain 1 A15M was tested. Which screen value did it give?
**A.** 1.57 Z-score of the enrichment rate within one screen of 711 sequences

**Q.** chain 1 A15R was tested. Which screen value did it give?
**A.** 1.69 Z-score of the enrichment rate within one screen of 711 sequences

**Q.** For chain 1 A15Y, which screen value is on record?
**A.** 1.64 Z-score of the enrichment rate within one screen of 711 sequences

**Q.** For chain 1 P3A, chain 1 L14A, which screen value is on record?
**A.** 0.559 Z-score of the enrichment rate within one screen of 711 sequences

**Q.** Which screen value does the source give for chain 1 Q4A here?
**A.** 1.48 Z-score of the enrichment rate within one screen of 711 sequences

**Q.** With chain 1 Q4T as the variant, how does the screen value read?
**A.** 1.45 Z-score of the enrichment rate within one screen of 711 sequences

**Q.** How did the screen value turn out when chain 1 Q4W was run?
**A.** 1.2 Z-score of the enrichment rate within one screen of 711 sequences

**Q.** With chain 1 Q4R as the variant, how does the screen value read?
**A.** 2 Z-score of the enrichment rate within one screen of 711 sequences

**Q.** Which screen value does the source give for chain 1 Q4H here?
**A.** 1.59 Z-score of the enrichment rate within one screen of 711 sequences

**Q.** For chain 1 Q4S, which screen value is on record?
**A.** 2.02 Z-score of the enrichment rate within one screen of 711 sequences

**Q.** Which screen value does the source give for chain 1 Q4G here?
**A.** 1.26 Z-score of the enrichment rate within one screen of 711 sequences

**Q.** Which screen value does the source give for chain 1 Q4M here?
**A.** 1.12 Z-score of the enrichment rate within one screen of 711 sequences

**Q.** With chain 1 Q4E as the variant, how does the screen value read?
**A.** 1.4 Z-score of the enrichment rate within one screen of 711 sequences

**Q.** For chain 1 Q4N, which screen value is on record?
**A.** 1.28 Z-score of the enrichment rate within one screen of 711 sequences

**Q.** How did the screen value turn out when chain 1 P3A, chain 1 R7A was run?
**A.** 0.212 Z-score of the enrichment rate within one screen of 711 sequences

**Q.** chain 1 R7A, chain 1 Q11A was tested. Which screen value did it give?
**A.** 0.044 Z-score of the enrichment rate within one screen of 711 sequences

**Q.** How did the screen value turn out when chain 1 R7A, chain 1 L10A was run?
**A.** -0.455 Z-score of the enrichment rate within one screen of 711 sequences

**Q.** How did the screen value turn out when chain 1 P6A, chain 1 Q11A was run?
**A.** 1.17 Z-score of the enrichment rate within one screen of 711 sequences

**Q.** For chain 1 L14A, chain 1 N16A, which screen value is on record?
**A.** 0.658 Z-score of the enrichment rate within one screen of 711 sequences

**Q.** For chain 1 Q4A, chain 1 L12A, which screen value is on record?
**A.** -0.309 Z-score of the enrichment rate within one screen of 711 sequences

**Q.** Which screen value does the source give for chain 1 P3A, chain 1 P13A here?
**A.** 1.51 Z-score of the enrichment rate within one screen of 711 sequences

**Q.** chain 1 Q4A, chain 1 Q11A was tested. Which screen value did it give?
**A.** 1.43 Z-score of the enrichment rate within one screen of 711 sequences

**Q.** With chain 1 Q11A, chain 1 N16A as the variant, how does the screen value read?
**A.** 1.16 Z-score of the enrichment rate within one screen of 711 sequences

**Q.** Which screen value does the source give for chain 1 P6A, chain 1 P8A here?
**A.** 0.889 Z-score of the enrichment rate within one screen of 711 sequences

**Q.** chain 1 T9P was tested. Which screen value did it give?
**A.** 0.775 Z-score of the enrichment rate within one screen of 711 sequences

**Q.** How did the screen value turn out when chain 1 T9S was run?
**A.** 1.4 Z-score of the enrichment rate within one screen of 711 sequences

**Q.** For chain 1 T9G, which screen value is on record?
**A.** 0.628 Z-score of the enrichment rate within one screen of 711 sequences

**Q.** Which screen value does the source give for chain 1 T9R here?
**A.** 1.59 Z-score of the enrichment rate within one screen of 711 sequences

**Q.** chain 1 T9V was tested. Which screen value did it give?
**A.** 1.12 Z-score of the enrichment rate within one screen of 711 sequences

**Q.** chain 1 T9I was tested. Which screen value did it give?
**A.** 1.93 Z-score of the enrichment rate within one screen of 711 sequences

**Q.** For chain 1 T9D, which screen value is on record?
**A.** 0.933 Z-score of the enrichment rate within one screen of 711 sequences

**Q.** chain 1 T9N was tested. Which screen value did it give?
**A.** 1.85 Z-score of the enrichment rate within one screen of 711 sequences

**Q.** With chain 1 T9K as the variant, how does the screen value read?
**A.** 1.65 Z-score of the enrichment rate within one screen of 711 sequences

**Q.** Which screen value does the source give for chain 1 T9A here?
**A.** 0.998 Z-score of the enrichment rate within one screen of 711 sequences
